Measurements taken from publication PMC6910952 (Nature Communications, 2019).
Changes are numbered by the printed parent chain. Values joined by “and” are separate entries in the source; they are usually repeats but may differ in a detail not shown here. Equal entries are not always repeated.

T1: yNpl4^113–580 (E123A K124A E125A) (Saccharomyces cerevisiae, UniProt P33755 113-580, E123A | K124A | E125A)
T1 construct: not shown: GST, N-terminal, cleaved
T1 sequence (looked up): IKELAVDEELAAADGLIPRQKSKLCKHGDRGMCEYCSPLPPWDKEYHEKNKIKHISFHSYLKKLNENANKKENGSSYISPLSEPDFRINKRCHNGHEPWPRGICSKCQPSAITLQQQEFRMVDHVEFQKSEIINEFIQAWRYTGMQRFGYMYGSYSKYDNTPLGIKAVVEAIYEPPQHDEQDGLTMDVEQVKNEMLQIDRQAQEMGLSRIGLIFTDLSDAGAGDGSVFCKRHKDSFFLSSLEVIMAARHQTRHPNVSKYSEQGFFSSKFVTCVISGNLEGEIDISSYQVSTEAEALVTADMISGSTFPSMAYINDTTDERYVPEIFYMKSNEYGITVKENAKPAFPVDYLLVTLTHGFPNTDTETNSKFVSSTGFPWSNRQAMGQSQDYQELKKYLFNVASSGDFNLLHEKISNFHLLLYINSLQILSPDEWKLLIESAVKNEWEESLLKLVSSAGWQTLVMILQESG

B1: His6-yNpl4^113–580 (domain or fragment, Saccharomyces cerevisiae, UniProt P33755 113-580, looked up)
chain: T1 sequence (looked up) with A11E, A12K, A13E
notes: codon-optimized synthetic cDNA; also called WT; WT #1; source: E. coli Rosetta (DE3), purified (Ni-NTA, Resource Q); also in lysate, mixed with cells expressing GST-yUfd1 for co-purification; not shown: His6, N-terminal, kept
B2: yUfd1–His6-yNpl4^113–580 complex (complex, Saccharomyces cerevisiae)
chain 1: MFSGFSSFGGGNGFVNMPQTFEEFFRCYPIAMMNDRIRKDDANFGGKIFLPPSALSKLSMLNIRYPMLFKLTANETGRVTHGGVLEFIAEEGRVYLPQWMMETLGIQPGSLLQISSTDVPLGQFVKLEPQSVDFLDISDPKAVLENVLRNFSTLTVDDVIEISYNGKTFKIKILEVKPESSSKSICVIETDLVTDFAPPVGYVEPDYKALKAQQDKEKKNSFGKGQVLDPSVLGQGSMSTRIDYAGIANSSRNKLSKFVGQGQNISGKAPKAEPKQDIKDMKITFDGEPAKLDLPEGQLFFGFPMVLPKEDEESAAGSKSSEQNFQGQGISLRKSNKRKTKSDHDSSKSKAPKSPEVIEID
chain 2: T1 sequence (looked up) with A11E, A12K, A13E
notes: Ufd1 of Saccharomyces cerevisiae (yUfd1), full-length gene in pGEX-6P1; also called yUfd1–yNpl4; not shown: GST, N-terminal, cleaved; His6, N-terminal, kept
B3: His6-yNpl4^113–580 S498L (domain or fragment, Saccharomyces cerevisiae, UniProt P33755 113-580, looked up)
chain: T1 sequence (looked up) with A11E, A12K, A13E, S386L
notes: source: E. coli Rosetta (DE3), purified (Ni-NTA, Resource Q); not shown: His6, N-terminal, kept
B4: His6-yNpl4^113–580 S498R (domain or fragment, Saccharomyces cerevisiae, UniProt P33755 113-580, looked up)
chain: T1 sequence (looked up) with A11E, A12K, A13E, S386R
notes: as for B3
B5: GST-yUfd1 (full length) (natural protein, Saccharomyces cerevisiae, UniProt P53044 1-361, looked up)
chain: B2 chain 1
notes: Ufd1 of Saccharomyces cerevisiae (yUfd1), full length; also called GST-Ufd1; source: E. coli Rosetta (DE3) (pGEX-6P1), purified (Glutathione Sepharose FF, Resource Q); not shown: GST, N-terminal, kept
B6: yUfd1^288–305 (peptide, UniProt P53044 288-305, looked up)
chain: EPAKLDLPEGQLFFGFPM
notes: also called yUfd1 NBM; not shown: GST, N-terminal, cleaved
B7: GST-yNpl4 T571A (natural protein, Saccharomyces cerevisiae, UniProt P33755 1-580, looked up)
chain: MLIRFRSKNGTHRVSCQENDLFGTVIEKLVGNLDPNADVDTFTVCEKPGQGIHAVSELADRTVMDLGLKHGDMLILNYSDKPANEKDGVNVEIGSVGIDSKGIRQHRYGPLRIKELAVDEELEKEDGLIPRQKSKLCKHGDRGMCEYCSPLPPWDKEYHEKNKIKHISFHSYLKKLNENANKKENGSSYISPLSEPDFRINKRCHNGHEPWPRGICSKCQPSAITLQQQEFRMVDHVEFQKSEIINEFIQAWRYTGMQRFGYMYGSYSKYDNTPLGIKAVVEAIYEPPQHDEQDGLTMDVEQVKNEMLQIDRQAQEMGLSRIGLIFTDLSDAGAGDGSVFCKRHKDSFFLSSLEVIMAARHQTRHPNVSKYSEQGFFSSKFVTCVISGNLEGEIDISSYQVSTEAEALVTADMISGSTFPSMAYINDTTDERYVPEIFYMKSNEYGITVKENAKPAFPVDYLLVTLTHGFPNTDTETNSKFVSSTGFPWSNRQAMGQSQDYQELKKYLFNVASSGDFNLLHEKISNFHLLLYINSLQILSPDEWKLLIESAVKNEWEESLLKLVSSAGWQALVMILQESG
notes: Npl4 of Saccharomyces cerevisiae (yNpl4), full length; source: E. coli Rosetta (DE3) (pGEX-6P1), purified (Glutathione Sepharose FF, Resource Q); not shown: GST, N-terminal, kept
B8: GST-yNpl4 I575A (natural protein, Saccharomyces cerevisiae, UniProt P33755 1-580, looked up)
chain: B7 chain with A571T, I575A
notes: as for B7
B9: GST-yNpl4 M574Q (natural protein, Saccharomyces cerevisiae, UniProt P33755 1-580, looked up)
chain: B7 chain with A571T, M574Q
notes: as for B7
B10: GST-yNpl4 S498R (natural protein, Saccharomyces cerevisiae, UniProt P33755 1-580, looked up)
chain: B7 chain with S498R, A571T
notes: as for B7
B11: GST-yNpl4 A494F (natural protein, Saccharomyces cerevisiae, UniProt P33755 1-580, looked up)
chain: B7 chain with A494F, A571T
notes: as for B7
B12: GST-yNpl4 M574A (natural protein, Saccharomyces cerevisiae, UniProt P33755 1-580, looked up)
chain: B7 chain with A571T, M574A
notes: as for B7

Experiments:
Settings in all cases: both partners purified
M1-Ub2 = target: T2, M1-Ub2 (UniProt P0CG48 1-76; P0CG48 1-76); test: SPR; Biacore T200, 25 °C; wild-type or mutant His6-yNpl4^113–580, yUfd1–His6-yNpl4^113–580 or His6-hNpl4 immobilized on a CM5 chip by amine coupling; Ub2 or Ub4 in two-fold dilution series injected 60 s at 10 μL per min in 10 mM HEPES-NaOH pH 7.5, 150 mM NaCl, 0.05% Tween-20, 0.5 g/L BSA; equilibrium Kd
T2 construct: ubiquitin (Ub), first unit; ubiquitin (Ub), second unit

M1-Ub4 = target: T3, M1-Ub4 (UniProt P0CG48 1-76; P0CG48 1-76; P0CG48 1-76; P0CG48 1-76); test: as above
T3 construct: ubiquitin (Ub), first unit; ubiquitin (Ub), second unit; ubiquitin (Ub), third unit; ubiquitin (Ub), fourth unit

[1] = target: T4, Cdc48 (recombinant, hexameric) (Saccharomyces cerevisiae, UniProt P25694 1-835); test: pull-down; GST-yUfd1 (0.5 μM) on Glutathione Sepharose 4B beads with His6-tagged Npl4 (wild type or mutant), Cdc48 and K48 chains; same binding buffer (Supplementary Fig. 3b)
T4 construct: Cdc48 AAA-family ATPase of Saccharomyces cerevisiae; source: E. coli Rosetta (DE3) (pET21a), purified (TALON resin, Superose 6)
T4 sequence (P25694 whole entry): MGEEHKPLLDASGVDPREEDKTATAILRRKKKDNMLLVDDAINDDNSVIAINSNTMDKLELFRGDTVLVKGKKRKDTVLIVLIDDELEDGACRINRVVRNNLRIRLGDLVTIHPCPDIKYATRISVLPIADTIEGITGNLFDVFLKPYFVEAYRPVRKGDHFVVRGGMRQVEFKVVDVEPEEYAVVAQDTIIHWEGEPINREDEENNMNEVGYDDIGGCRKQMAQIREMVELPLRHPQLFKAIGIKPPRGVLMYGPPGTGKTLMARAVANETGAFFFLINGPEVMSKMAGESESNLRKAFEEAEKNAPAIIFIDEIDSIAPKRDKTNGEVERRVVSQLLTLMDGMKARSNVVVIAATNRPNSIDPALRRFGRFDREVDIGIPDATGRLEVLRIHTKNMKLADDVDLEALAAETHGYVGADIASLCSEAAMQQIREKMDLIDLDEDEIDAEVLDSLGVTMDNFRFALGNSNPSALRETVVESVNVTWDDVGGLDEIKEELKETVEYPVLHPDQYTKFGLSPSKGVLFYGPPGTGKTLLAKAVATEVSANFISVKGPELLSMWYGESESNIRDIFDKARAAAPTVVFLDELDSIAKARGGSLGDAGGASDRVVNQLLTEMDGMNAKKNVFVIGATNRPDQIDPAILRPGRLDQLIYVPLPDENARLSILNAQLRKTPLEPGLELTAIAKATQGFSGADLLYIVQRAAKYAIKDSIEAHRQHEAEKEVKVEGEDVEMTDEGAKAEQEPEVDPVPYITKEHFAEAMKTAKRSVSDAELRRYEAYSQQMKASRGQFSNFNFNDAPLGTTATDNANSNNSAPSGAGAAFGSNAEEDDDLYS

[2] = target: T1, yNpl4^113–580 (E123A K124A E125A); test: crystal structure; yNpl4^113–580 (E123A K124A E125A)–yUfd1^288–305 complex; sitting drop, 20 °C, 90 mM Bis-Tris-HCl pH 7.5, 19% PEG3350, 10 mM ATP
[3] = target: T4, Cdc48 (recombinant, hexameric); test: pull-down; GST-yNpl4 (0.5 μM, wild type or mutant) on Glutathione Sepharose 4B beads, 1 h at room temperature with 0.5 μM yUfd1, 3 μM Cdc48 (0.5 μM hexamer) and 1 μg K48 chains in 100 μL 50 mM Tris-HCl pH 7.5, 100 mM NaCl, 10% glycerol, 0.1% Triton X-100; chains detected by anti-Ub immunoblot, proteins by Ponceau S

| Binder | Kd (M1-Ub4) | binding result [3] | also measured |
| --- | --- | --- | --- |
| B1 | 139 µM and 103 µM |  | Kd (M1-Ub2): 333 µM and 420 µM |
| B2 | 151 µM |  |  |
| B3 | 101 µM |  |  |
| B4 | 136 µM |  |  |
| B5 |  |  | binding result [1]: binds |
| B6 |  |  | binding result [2]: binds |
| B7 |  | binds |  |
| B8 |  | binds |  |
| B9 |  | binds |  |
| B10 |  | binds |  |
| B11 |  | binds |  |
| B12 |  | binds |  |
